Target: the molecule itself
Experiment: native gel or EMSA; 8% native PAGE; equal amounts (2.5 μg) of FLF and CHF mixed and incubated for 1 h at 4 °C; lanes CHF, FLF, FLF + CHF

B1: C-terminal half of human fascin 1 (CHF) (domain or fragment)
chain: not shown
notes: human fascin 1, residues 260-493 (beta3 and beta4-trefoil domains); also called N-terminal domain deletion (beta-trefoil 1 and 2); C-domain; not shown: His tag (from the vector pFastBacHT)
  stoichiometry N: 2
